Assay results taken from the supplement of paper PMC9112550, “Optimization of the antimicrobial peptide Bac7 by deep mutational scanning” (BMC Biology, 2022).

Test system: Escherichia coli TOP10
Assay: shrunken log2 fold change of peptide-encoding DNA abundance (4.5 h post-induction vs induction); higher = less antimicrobial activity (less host growth inhibition)
Conditions: time post-induction: 4.5 h; library: site-saturation at positions 5, 18, 19, 20
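Note: peptides expressed intracellularly from a pBAD plasmid library in pooled LB shake-flask culture, induced with 0.3% L-arabinose, DNA abundance read by NGS, three biological replicates, DESeq2 with apeglm shrinkage.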

Sequence | shrunken log2 fold change
RRIRKRPPRLPRPRPRPGVTPRP | 0.409
RRIRHRPPRLPRPRPRPECDPRP | -0.0404
RRIRTRPPRLPRPRPRPGTKPRP | -0.122
RRIRLRPPRLPRPRPRPHAYPRP | -0.392
RRIRPRPPRLPRPRPRPDYPPRP | -0.0173
RRIRVRPPRLPRPRPRPRPDPRP | 0.216
RRIRSRPPRLPRPRPRPNDYPRP | -1.18
RRIRMRPPRLPRPRPRPIATPRP | -0.0165
RRIRMRPPRLPRPRPRPGWSPRP | 0.548
RRIRHRPPRLPRPRPRPPRIPRP | 0.0175
RRIRCRPPRLPRPRPRPLWYPRP | -0.307
RRIRWRPPRLPRPRPRPIKCPRP | -0.0271
RRIRHRPPRLPRPRPRPMIQPRP | -0.0673
RRIRSRPPRLPRPRPRPGTDPRP | -0.0659
RRIRTRPPRLPRPRPRPHCSPRP | -0.0966
RRIRERPPRLPRPRPRPCYWPRP | -0.361
RRIRVRPPRLPRPRPRPGDLPRP | -0.211
RRIRIRPPRLPRPRPRPAWDPRP | -0.0871
RRIRYRPPRLPRPRPRPQKAPRP | -0.0304
RRIRHRPPRLPRPRPRPCWMPRP | -0.032
RRIRLRPPRLPRPRPRPNYCPRP | -0.31
RRIRERPPRLPRPRPRPINHPRP | 0.198
RRIRDRPPRLPRPRPRPWIHPRP | -0.0487
RRIRIRPPRLPRPRPRPDVSPRP | -0.121
RRIRERPPRLPRPRPRPDLCPRP | -0.00931

Sequence | shrunken log2 fold change
RRIRYRPPRLPRPRPRPVGMPRP | -0.083
RRIRVRPPRLPRPRPRPYWHPRP | -0.636
RRIRLRPPRLPRPRPRPHITPRP | -0.824
RRIRPRPPRLPRPRPRPCCQPRP | -0.516
RRIRPRPPRLPRPRPRPSNFPRP | -0.168
RRIRWRPPRLPRPRPRPRSQPRP | 0.434
RRIRMRPPRLPRPRPRPIRTPRP | -0.0696
RRIRWRPPRLPRPRPRPKPVPRP | 0.006
RRIRWRPPRLPRPRPRPGVTPRP | 0.586
RRIRARPPRLPRPRPRPILGPRP | 0.0597
RRIRQRPPRLPRPRPRPYSCPRP | 0.0133
RRIRCRPPRLPRPRPRPYHAPRP | -0.585
RRIRIRPPRLPRPRPRPQTIPRP | -0.337
RRIRQRPPRLPRPRPRPVTHPRP | 4.01
RRIRHRPPRLPRPRPRPHDSPRP | -0.03
RRIRHRPPRLPRPRPRPGKQPRP | -0.173
RRIRHRPPRLPRPRPRPKSDPRP | -0.255
RRIRCRPPRLPRPRPRPWTMPRP | 0.0153
RRIRMRPPRLPRPRPRPCVVPRP | -0.0402
RRIRLRPPRLPRPRPRPCGRPRP | 0.147
RRIRQRPPRLPRPRPRPNTKPRP | -0.199
RRIRFRPPRLPRPRPRPYPGPRP | 0.00399
RRIRHRPPRLPRPRPRPHRCPRP | 0.0171
RRIRNRPPRLPRPRPRPWDEPRP | 0.0165
RRIRTRPPRLPRPRPRPEVVPRP | 0.292

Sequence | shrunken log2 fold change
RRIRRRPPRLPRPRPRPADHPRP | -0.115
RRIRWRPPRLPRPRPRPKWYPRP | -0.235
RRIRTRPPRLPRPRPRPVYDPRP | -0.156
RRIRKRPPRLPRPRPRPLHWPRP | 0.59
RRIRGRPPRLPRPRPRPMAPPRP | 1.2
RRIRGRPPRLPRPRPRPPNGPRP | 0.534
RRIRSRPPRLPRPRPRPLFEPRP | -0.0159
RRIRNRPPRLPRPRPRPHPMPRP | 0.0281
RRIRDRPPRLPRPRPRPSWEPRP | -0.00136
RRIRFRPPRLPRPRPRPGYVPRP | -0.116
RRIRARPPRLPRPRPRPMPMPRP | 0.695
RRIRDRPPRLPRPRPRPDVNPRP | 0.209
RRIRMRPPRLPRPRPRPYQPPRP | 0.0396
RRIRMRPPRLPRPRPRPSWQPRP | 0.305
RRIRWRPPRLPRPRPRPHPFPRP | -0.42
RRIRVRPPRLPRPRPRPNCGPRP | 0.0742
RRIRFRPPRLPRPRPRPYLPPRP | -0.216
RRIRGRPPRLPRPRPRPYMLPRP | -0.0745
RRIRQRPPRLPRPRPRPMYCPRP | -0.526
RRIRGRPPRLPRPRPRPHVFPRP | 0.162
RRIRARPPRLPRPRPRPNNMPRP | -0.516
RRIRYRPPRLPRPRPRPIAWPRP | -0.0381
RRIRFRPPRLPRPRPRPMAGPRP | -0.111
RRIRARPPRLPRPRPRPDRQPRP | 0.0329
RRIRDRPPRLPRPRPRPELYPRP | 1.13
